The values below are quoted from earlier work in PMC4152934.

The target in one series is AdipoR1 (Mus musculus) (UniProt Q91VH1).
The target in a further series is AdipoR2 (Mus musculus) (UniProt Q8BQS5).
UniProt Q8BQS5, sequence (Q8BQS5 whole entry): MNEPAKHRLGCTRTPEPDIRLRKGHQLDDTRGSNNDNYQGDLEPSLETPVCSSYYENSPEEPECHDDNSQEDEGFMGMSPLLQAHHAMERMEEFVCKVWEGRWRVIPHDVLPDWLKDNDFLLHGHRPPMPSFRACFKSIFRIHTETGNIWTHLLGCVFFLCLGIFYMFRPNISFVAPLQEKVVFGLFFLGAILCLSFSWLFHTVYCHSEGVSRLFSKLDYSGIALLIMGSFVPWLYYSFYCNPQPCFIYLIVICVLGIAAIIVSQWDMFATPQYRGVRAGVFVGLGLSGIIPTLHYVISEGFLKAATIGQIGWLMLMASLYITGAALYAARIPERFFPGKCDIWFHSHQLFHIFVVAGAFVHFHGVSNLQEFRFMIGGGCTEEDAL

UniProt Q91VH1, sequence (Q91VH1 whole entry): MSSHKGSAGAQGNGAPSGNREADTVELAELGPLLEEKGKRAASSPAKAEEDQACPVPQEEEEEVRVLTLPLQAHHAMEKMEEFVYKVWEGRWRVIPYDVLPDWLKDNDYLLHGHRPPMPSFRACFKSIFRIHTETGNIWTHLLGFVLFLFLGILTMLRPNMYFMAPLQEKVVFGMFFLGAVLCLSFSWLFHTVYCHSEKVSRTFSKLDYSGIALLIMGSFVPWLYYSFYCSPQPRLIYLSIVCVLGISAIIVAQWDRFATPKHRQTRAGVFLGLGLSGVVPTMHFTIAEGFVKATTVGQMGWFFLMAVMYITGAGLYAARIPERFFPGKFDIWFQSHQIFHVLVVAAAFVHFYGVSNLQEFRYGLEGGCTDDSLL

Take “globular adiponectin trimer globular domain (from UniProt Q60994)”: the Kd – broadly, a measure of binding affinity in units of concentration – with AdipoR1 (Mus musculus) is 1.14 nM; with AdipoR2 (Mus musculus) it was 14.4 nM.
